The values that follow are results of earlier work, collected in publication PMC7340539.

As usually defined, the Kd is the free concentration of one partner at which half of the binding sites on the other are occupied at equilibrium, for simple one-to-one binding.

The target of the data set is CD47 (Homo sapiens) (UniProt Q08722).
Chain of UniProt Q08722 (Q08722 19-323): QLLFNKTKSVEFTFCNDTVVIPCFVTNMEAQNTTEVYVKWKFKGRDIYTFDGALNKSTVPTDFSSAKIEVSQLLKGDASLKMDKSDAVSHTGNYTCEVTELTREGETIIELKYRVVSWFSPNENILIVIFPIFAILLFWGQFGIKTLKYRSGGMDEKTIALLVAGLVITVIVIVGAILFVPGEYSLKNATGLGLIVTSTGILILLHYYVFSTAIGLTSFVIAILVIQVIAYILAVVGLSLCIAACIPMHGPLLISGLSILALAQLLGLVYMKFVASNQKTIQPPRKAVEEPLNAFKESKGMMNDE

For SIRPα ECD (from UniProt P78324), the Kd is 2000 nM.
